Experimental data taken from IntAct's records for PubMed 31515488.

B1: Dolichyl-diphosphooligosaccharide--protein glycosyltransferase subunit 1 (Homo sapiens), P04843 (parent)
chain: MEAPAAGLFLLLLLGTWAPAPGSASSEAPPLINEDVKRTVDLSSHLAKVTAEVVLAHLGGGSTSRATSFLLALEPELEARLAHLGVQVKGEDEEENNLEVRETKIKGKSGRFFTVKLPVALDPGAKISVIVETVYTHVLHPYPTQITQSEKQFVVFEGNHYFYSPYPTKTQTMRVKLASRNVESYTKLGNPTRSEDLLDYGPFRDVPAYSQDTFKVHYENNSPFLTITSMTRVIEVSHWGNIAVEENVDLKHTGAVLKGPFSRYDYQRQPDSGISSIRSFKTILPAAAQDVYYRDEIGNVSTSHLLILDDSVEMEIRPRFPLFGGWKTHYIVGYNLPSYEYLYNLGDQYALKMRFVDHVFDEQVIDSLTVKIILPEGAKNIEIDSPYEISRAPDELHYTYLDTFGRPVIVAYKKNLVEQHIQDIVVHYTFNKVLMLQEPLLVVAAFYILFFTVIIYVRLDFSITKDPAAEARMKVACITEQVLTLVNKRIGLYRHFDETVNRYKQSRDISTLNSGKKSLETEHKALTSEIALLQSRLKTEGSDLCDRVSEMQKLDAQVKELVLKSAVEAERLVAGKLKKDTYIENEKLISGKRQELVTKIDHILDAL
B2: Forkhead box protein R2 (Homo sapiens), Q6PJQ5 (parent)
chain: MDLKLKDCEFWYSLHGQVPGLLDWDMRNELFLPCTTDQCSLAEQILAKYRVGVMKPPEMPQKRRPSPDGDGPPCEPNLWMWVDPNILCPLGSQEAPKPSGKEDLTNISPFPQPPQKDEGSNCSEDKVVESLPSSSSEQSPLQKQGIHSPSDFELTEEEAEEPDDNSLQSPEMKCYQSQKLWQINNQEKSWQRPPLNCSHLIALALRNNPHCGLSVQEIYNFTRQHFPFFWTAPDGWKSTIHYNLCFLDSFEKVPDSLKDEDNARPRSCLWKLTKEGHRRFWEETRVLAFAQRERIQECMSQPELLTSLFDL
partner: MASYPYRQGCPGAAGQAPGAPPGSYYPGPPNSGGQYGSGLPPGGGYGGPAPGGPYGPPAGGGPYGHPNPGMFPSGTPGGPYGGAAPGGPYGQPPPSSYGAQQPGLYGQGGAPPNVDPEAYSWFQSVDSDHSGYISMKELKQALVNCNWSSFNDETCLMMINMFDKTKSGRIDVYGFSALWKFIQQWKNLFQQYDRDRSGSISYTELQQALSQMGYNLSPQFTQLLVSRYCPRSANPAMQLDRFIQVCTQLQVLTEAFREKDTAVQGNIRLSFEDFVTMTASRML
B3: Synaptotagmin-16 (Homo sapiens), Q17RD7 (parent)
chain: MVLAMASQDVQNFFQPFSSWISRVYEALQQAGDMLSASLVNISKQDSKLSDKLDQDLDNIQIQETYFEDEEQDNDWSQEDANSLFLEVDHFSCCNSDLQDSAQNSSPSLSQHAKDSCSTMSQWPNWASDDRKLPHVLSSIAEEEHHLEKQRSGLQHGFDSQLPGTLETVNGKKQVNSFGDDEELSTSSDSDEEVIKQFEISVSRSQSFRSVTSEKGKQTGLEQKPKFSRSLLTHGEDGTEVSACEDLDGASQRRYSENLSYGEDDHIPAHSQSPCERGDAKHHGTSHQESSVVQSLRRQSTEGSLEMETAFNSRGFEDSYATDSSSMWSPEEQDRTNLQVPSGVSEPISKCGDLDVIFEYRAASQKLTVTIVRAQGLPDKDRSGVNSWQVHVVLLPGKKHRGRTNIQRGPNPVFREKVTFAKLEPRDVAACAVRFRLYAARKMTRERMMGEKLFYLSHLHPEGEMKVTLVLEPRSNISSGGSPLSPSAVSHSDSTSSTQSLSHGGAPELLVGLSYNATTGRLSVEMIKGSHFRNLAVNRAPDTYGKLFLLNSVGQEMSRCKTSIRRGQPNPVYKETFVFQVALFQLSDVTLMISVYNRRTMKRKEMIGWIALGQNSSGEEEQDHWEEMKETKGQQICRWHTLLES
B4: Vesicle transport through interaction with t-SNAREs homolog 1B (Homo sapiens), Q9UEU0 (parent)
chain: MASSAASSEHFEKLHEIFRGLHEDLQGVPERLLGTAGTEEKKKLIRDFDEKQQEANETLAEMEEELRYAPLSFRNPMMSKLRNYRKDLAKLHREVRSTPLTATPGGRGDMKYGIYAVENEHMNRLQSQRAMLLQGTESLNRATQSIERSHRIATETDQIGSEIIEELGEQRDQLERTKSRLVNTSENLSKSRKILRSMSRKVTTNKLLLSIIILLELAILGGLVYYKFFRSH
partner: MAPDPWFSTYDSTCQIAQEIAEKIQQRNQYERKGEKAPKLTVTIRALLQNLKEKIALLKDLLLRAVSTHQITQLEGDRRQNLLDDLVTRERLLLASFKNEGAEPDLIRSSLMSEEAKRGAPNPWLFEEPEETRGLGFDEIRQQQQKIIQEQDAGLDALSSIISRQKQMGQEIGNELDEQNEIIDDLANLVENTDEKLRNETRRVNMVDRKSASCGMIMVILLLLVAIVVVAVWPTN
B5: DNA mismatch repair protein Mlh1 (Homo sapiens), P40692 (parent)
chain: MSFVAGVIRRLDETVVNRIAAGEVIQRPANAIKEMIENCLDAKSTSIQVIVKEGGLKLIQIQDNGTGIRKEDLDIVCERFTTSKLQSFEDLASISTYGFRGEALASISHVAHVTITTKTADGKCAYRASYSDGKLKAPPKPCAGNQGTQITVEDLFYNIATRRKALKNPSEEYGKILEVVGRYSVHNAGISFSVKKQGETVADVRTLPNASTVDNIRSIFGNAVSRELIEIGCEDKTLAFKMNGYISNANYSVKKCIFLLFINHRLVESTSLRKAIETVYAAYLPKNTHPFLYLSLEISPQNVDVNVHPTKHEVHFLHEESILERVQQHIESKLLGSNSSRMYFTQTLLPGLAGPSGEMVKSTTSLTSSSTSGSSDKVYAHQMVRTDSREQKLDAFLQPLSKPLSSQPQAIVTEDKTDISSGRARQQDEEMLELPAPAEVAAKNQSLEGDTTKGTSEMSEKRGPTSSNPRKRHREDSDVEMVEDDSRKEMTAACTPRRRIINLTSVLSLQEEINEQGHEVLREMLHNHSFVGCVNPQWALAQHQTKLYLLNTTKLSEELFYQILIYDFANFGVLRLSEPAPLFDLAMLALDSPESGWTEEDGPKEGLAEYIVEFLKKKAEMLADYFSLEIDEEGNLIGLPLLIDNYVPPLEGLPIFILRLATEVNWDEEKECFESLSKECAMFYSIRKQYISEESTLSGQQSEVPGSIPNSWKWTVEHIVYKALRSHILPPKHFTEDGNILQLANLPDLYKVFERC

Variants of: B1
Conditions: with ubql1_human UBQLN1, Q9UMX0
F203L was tested, and the “effect of a mutation on the interaction” value was “disrupting interaction strength”.

Variants of: B1
Conditions: with sgta_human SGTA
F203L was tested, and the “effect of a mutation on the interaction” value was “with no effect”.

Variants of: B2
Conditions: with pef1_human PEF1, Q9UBV8
With I218F the “effect of a mutation on the interaction” value was “disrupting interaction strength”. In the case of V286A, the “effect of a mutation on the interaction” value is reported as “with no effect”.

Variants of: B3
Conditions: with praf1_human RABAC1, Q9UI14
For R131L, the “effect of a mutation on the interaction” value was “with no effect”. With A536T the “effect of a mutation on the interaction” value was “with no effect”.

Variants of: B3
Conditions: with rtn4_human RTN4, Q9NQC3
For R131L, the “effect of a mutation on the interaction” value was “with no effect”. In the case of A536T, the “effect of a mutation on the interaction” value is reported as “with no effect”.

Variants of: B3
Conditions: with atrap_human AGTRAP
For R131L, the “effect of a mutation on the interaction” value was “with no effect”. A536T was tested, and the “effect of a mutation on the interaction” value was “with no effect”.

Variants of: B4
Conditions: with stx8_human STX8, Q9UNK0
For R124Q, the “effect of a mutation on the interaction” value was “with no effect”. In the case of R176H, the “effect of a mutation on the interaction” value is reported as “with no effect”.

Variants of: B5
Conditions: with msh3_human MSH3, P20585
With V384D the “effect of a mutation on the interaction” value was “with no effect”. In the case of S406N, the “effect of a mutation on the interaction” value is reported as “with no effect”. With A441T the “effect of a mutation on the interaction” value was “with no effect”.

Variants of: B5
Conditions: with ima1_human KPNA2, P52292
V384D was tested, and the “effect of a mutation on the interaction” value was “with no effect”. S406N was tested, and the “effect of a mutation on the interaction” value was “with no effect”. A441T was tested, and the “effect of a mutation on the interaction” value was “with no effect”.

Variants of: B5
Conditions: with psa1_human PSMA1, P25786
V384D was tested, and the “effect of a mutation on the interaction” value was “with no effect”. With S406N the “effect of a mutation on the interaction” value was “with no effect”. With A441T the “effect of a mutation on the interaction” value was “with no effect”.

Variants of: B5
Conditions: with msh3_human MSH3, P20585
Remark: another data set of the same source
R69K was tested, and the “effect of a mutation on the interaction” value was “with no effect”.

Variants of: B5
Conditions: with ima1_human KPNA2, P52292
Remark: another data set of the same source
With R69K the “effect of a mutation on the interaction” value was “with no effect”.

Variants of: B5
Conditions: with psa1_human PSMA1, P25786
Remark: another data set of the same source
R69K was tested, and the “effect of a mutation on the interaction” value was “with no effect”.
